In publication PMC3656419 (Journal of molecular biology, 2008):

Key:
SEC = target: the molecule itself; assay: SEC
AUC = target: the molecule itself; assay: AUC
crystal structure = target: the molecule itself; assay: crystal structure

B1: SeMet EcMenD (selenomethionine derivative of Escherichia coli MenD, histidine tag removed by proteolysis) (enzyme, E. coli (K12))
chain: GHMSVSAFNRRWAAVILEALTRHGVRHICIAPGSRSTPLTLAAAENSAFIHHTHFDERGLGHLALGLAKVSKQPVAVIVTSGTAVANLYPALIEAGLTGEKLILLTADRPPELIDCGANQAIRQPGMFASHPTHSISLPRPTQDIPARWLVSTIDHALGTLHAGGVHINCPFAEPLYGEMDDTGLSWQQRLGDWWQDDKPWLREAPRLESEKQRDWFFWRQKRGVVVAGRMSAEEGKKVALWAQTLGWPLIGDVLSQTGQPLPCADLWLGNAKATSELQQAQIVVQLGSSLTGKRLLQWQASCEPEEYWIVDDIEGRLDPAHHRGRRLIANIADWLELHPAEKRQPWCVEIPRLAEQAMQAVIARRDAFGEAQLAHRICDYLPEQGQLFVGNSLVVRLIDALSQLPAGYPVYSNRGASGIDGLLSTAAGVQRASGKPTLAIVGDLSALYDLNALALLRQVSAPLVLIVVNNNGGQIFSLLPTPQSERERFYLMPQNVHFEHAAAMFELKYHRPQNWQELETAFADAWRTPTTTVIEMVVNDTDGAQTLQQLLAQVSHL
modifications: selenomethionine in place of methionine (full incorporation of SeMet)
- stoichiometry N (SEC): 2
- stoichiometry N (AUC): 3
- stoichiometry N (crystal structure): 4

B2: native EcMenD (Escherichia coli 2-succinyl-5-enolpyruvyl-6-hydroxy-3-cyclohexadiene-1-carboxylate synthase), N-terminal hexahistidine-tagged (enzyme, E. coli (K12), UniProt P17109 1-556, looked up)
chain: MSVSAFNRRWAAVILEALTRHGVRHICIAPGSRSTPLTLAAAENSAFIHHTHFDERGLGHLALGLAKVSKQPVAVIVTSGTAVANLYPALIEAGLTGEKLILLTADRPPELIDCGANQAIRQPGMFASHPTHSISLPRPTQDIPARWLVSTIDHALGTLHAGGVHINCPFAEPLYGEMDDTGLSWQQRLGDWWQDDKPWLREAPRLESEKQRDWFFWRQKRGVVVAGRMSAEEGKKVALWAQTLGWPLIGDVLSQTGQPLPCADLWLGNAKATSELQQAQIVVQLGSSLTGKRLLQWQASCEPEEYWIVDDIEGRLDPAHHRGRRLIANIADWLELHPAEKRQPWCVEIPRLAEQAMQAVIARRDAFGEAQLAHRICDYLPEQGQLFVGNSLVVRLIDALSQLPAGYPVYSNRGASGIDGLLSTAAGVQRASGKPTLAIVGDLSALYDLNALALLRQVSAPLVLIVVNNNGGQIFSLLPTPQSERERFYLMPQNVHFEHAAAMFELKYHRPQNWQELETAFADAWRTPTTTVIEMVVNDTDGAQTLQQLLAQVSHL
- stoichiometry N (SEC): 2
